Laboratory results taken from article PMC4596477, “Interaction of Myosin Phosphatase Target Subunit (MYPT1) with Myosin Phosphatase-RhoA Interacting Protein (MRIP): A Role of Glutamic Acids in the Interaction” (PLoS ONE, 2015).

B1: MRIP^724-837: recombinant tag-free MRIP peptide, residues 724–837; CC2-CC3 (protein)
chain: CERGFAAMEETHQKKIEDLQRQHQRELEKLREEKDRLLAEETAATISAIEAMKNAHREEMERELEKSQRSQISSVNSDVEALRRQYLEELQSVQRELEVLSEQYSQKCLENAHL
modifications: left off: chitin-binding domain (IMPACT kit, pTYB12), N-terminal, cleaved
notes: recombinant tag-free MRIP peptide, residues 724–837; CC2-CC3
B2: CC: sub-domain of CCLR, residues 924–990; the putative coiled coil domain (protein, UniProt Q6WCQ1 924-990, looked up, fragment)
chain: KDELQTALRDKKYASDKYKDIYTELSIAKAKADCDISRLKEQLKAATEALGEKSPDSATVSGYDIMK

What was measured:
[1] = AUC sedimentation velocity of MRIP peptides alone (molar mass, sedimentation coefficient, oligomeric state); format: physicochemical
Source text: The RMSD of the fit was 0.008.
(§1) The cDNA fragment encoding MRIP peptides were amplified using a full-length MRIP cDNA as a template with the following primer pairs: MRIP^545-878, 5’-[…]/5’[…]; MRIP^724-878, 5’-[…]/5’-[…]; MRIP^724-837, 5’-[…]/5’-[…]. The PCR products were ligated into pCR2.1-TOPO using the TA cloning system and sequenced in both directions. The IMPACT™ (Intein Mediated Purification with an Affinity Chitin-binding Tag) Kit (New England BioLabs) was used to express peptides in bacteria to obtain tag-free peptides. The PCR amplicon encoding MRIP peptides were fused in frame to the chitin binding domain of pTYB12 vector utilizing the NdeI/EcoRI restriction sites. The expression vectors for the MYPT1 peptides, CCLR (residues 924–1030), CC (residues 924–990), and LR (residues 991–1030) were constructed as described: In the reference literature, CCLR and LR were named CCLZ and LZ, respectively. Recombinant peptides were produced in Escherichia coli strain BL21 (DE3) and purified using chitin beads according to the manufacturer's protocol. For further purification, the eluent from chitin beads was loaded on a Vydac C8 reversed phase column and subjected to HPLC using an acetonitrile gradient. Purity and identity of the peptides were confirmed by polyacrylamide gel electrophoresis (PAGE) and mass spectrometry. For the mutagenesis study of LR, the wild-type and mutant LR peptides were synthesized, purified by reverse-phase HPLC, and lyophilized to dryness at the peptide core in Boston Biomedical Research Institute.
Sedimentation velocity experiments were done on a Beckman Instruments Optima XL-I analytical ultracentrifuge equipped with Rayleigh optics. The cells were equipped with sapphire windows and 12 mm charcoal-filled Epon centerpieces. Apparent sedimentation coefficient distribution patterns were computed by the time derivative method. Peptides were dialyzed against 50 mM potassium phosphate buffer (pH 7.4) containing 100 mM KCl, and 1 mM DTT at 4°C overnight and then subjected to AUC at 50,000 rpm and 20°C. Molar mass was computed from sedimentation velocity profiles using SedAnal, which uses a nonlinear least-squares curve fitting algorithm to fit data to solutions of the differential equation (the Lamm equation) describing sedimentation. Fits were performed on time difference data to remove the time-independent systematic baseline components. Values of s and D produced by the fitting procedure were substituted into the Svedberg equation to obtain the molar mass of the protein, M: M=RT/(1−ν¯ρ)s20,wo/D20,wo where ρ is the density of the buffer and ν¯ is the partial specific volume of the protein. Sednterp was employed to compute values of ρ and ν¯ from the amino acid sequence.

CCLR = assay: AUC interaction of MRIP peptides with MYPT1 peptide CCLR (residues 924–1030); format: binding; conditions: equimolar mixtures (MRIP^545-878 14 μM each; MRIP^724-878 30 μM each; MRIP^724-837 67 μM each) and 3-, 9-fold dilutions, pH 7.4, 100 mM KCl, 20°C
Procedure: AUC was performed to examine the interactions of MRIP^545-878, MRIP^724-878, or MRIP^724-837 individually with the MYPT1 peptide (residues 924–1030) containing a putative coiled coil domain (CC) and the leucine repeat region (LR), designated as CCLR.
Fig 3 All MRIP peptides bind to the C-terminal region of MYPT1, CCLR (residues 924–1030). Concentration-normalized time derivative g(s*) graphs of the MRIP peptides by themselves and in equimolar mixtures: Lines, CCLR (30 μM); +, individual MRIP peptides by themselves (MRIP^545-878, 14 μM; MRIP^724-878, 50 μM; MRIP^724-837, 67 μM); black filled-in circles, original equimolar mixtures (MRIP^545-878, 14 μM each; MRIP^724-878, 30 μM each; MRIP^724-837, 67 μM each); open circles, 3-fold dilutions; gray filled-in circles, 9-fold dilutions.
as §1, with “For the mutagenesis study of LR, the wild-type and mutant LR peptides were synthesized, purified by reverse-phase HPLC, and lyophilized to dryness at the peptide core in Boston Biomedical Research Institute.” left out

MRIP^724-878 [2] = biological target: T1, MRIP^724-878 (Homo sapiens, UniProt Q6WCQ1); assay: AUC interaction of MYPT1 peptides (CC, LR and LR mutants) with MRIP^724-878; format: binding; conditions: equimolar mixture (CC: 50 μM each) and dilutions, pH 7.4, 100 mM KCl, 20°C
T1 construct: MRIP^724-878 (residues 724–878; CC2-CC4); made in house; host or cells: Escherichia coli BL21 (DE3)
T1 sequence (Q6WCQ1 725-879): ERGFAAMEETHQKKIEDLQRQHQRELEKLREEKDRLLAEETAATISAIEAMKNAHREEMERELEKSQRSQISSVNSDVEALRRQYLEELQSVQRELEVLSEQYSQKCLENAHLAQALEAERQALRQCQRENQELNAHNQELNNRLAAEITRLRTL
Source text: (§2) To determine the minimal MRIP-binding region of MYPT1, AUC was employed to examine interactions between sub-domains of CCLR, CC (residues 924–990) and LR (residues 991–1030) with MRIP^724-878 (Fig 4A). CC is the putative coiled coil domain and LR contains 16 upstream amino acid residues (residues 991–1006) in addition to the leucine repeat (residues 1007–1028). MRIP^724-878 was chosen because of its good fit to a single component, single-species model. […] Global fitting of the mixture to a two-component model produced a good fit and the RMSD of the fit was 0.010 (Fig 4B; Fitting of CC).
The coiled coil is a common protein-protein interaction domain. The MRIP peptides in this study have putative coiled coil domains and are α-helical. In contrast, the MYPT1 peptide, LR is not α-helical even though it contains the leucine repeat. Thus, we hypothesized that charged residues of MYPT1 might participate in the MYPT1/MRIP interaction with its leucine residues. We generated various LR peptides representing mutations in charged residues (Fig 6A) and examined their bindings to MRIP^724-878 (Fig 6B).
Fig 6 Glutamic acids within LR enhance the MRIP-binding affinity. (A) Amino acid sequences of the wild-type LR (WT-LR) and mutant LR peptides. Charged residues are in bold, the leucine repeat is in Italic, and substitution mutations are underlined. (B) Time derivative s*lg(s*) graphs: Line, MRIP^724-878 alone (50 μM); filled-in circles, original mixture of MRIP^724-878/each mutant LR peptide (50 μM each except for R992D/R993D and E996K whose mixtures consisted of excess amount of the mutant LR peptides); open circles, a three-fold dilution of the original mixture. The molar mass of the complex differs slightly from that of MRIP^724-878 dimer (37.9 kDa vs 37.4 kDa), and thus the shift in the main peak position is not easily discernable in many cases.
as §1
Sedimentation velocity experiments were done on a Beckman Instruments Optima XL-I analytical ultracentrifuge equipped with Rayleigh optics. The cells were equipped with sapphire windows and 12 mm charcoal-filled Epon centerpieces. Apparent sedimentation coefficient distribution patterns were computed by the time derivative method. Peptides were dialyzed against 50 mM potassium phosphate buffer (pH 7.4) containing 100 mM KCl, and 1 mM DTT at 4°C overnight and then subjected to AUC at 50,000 rpm and 20°C. […]

MRIP^724-878 [3] = biological target: T1, MRIP^724-878; assay: SPR, MYPT1 peptides as analytes over immobilized MRIP^724-878; format: binding; conditions: 25°C, pH 7.4, CCLR 167–1 μM, CC 318–10 μM, LR 569–5 μM
Procedure: To corroborate the results from AUC studies, SPR was employed. […] Equilibrium K d values were obtained by nonlinear curve fitting of reference-corrected curves using the steady-state affinity fitting model in BIAevaluation version 4–1.
Analytes CCLR, CC, LR: Interactions between analytes, CCLR (167–1 μM), CC (318–10 μM), and LR (569–5 μM) with immobilized ligand, MRIP^724-878 (1800 RU) after correction for nonspecific binding using G-actin (2230 RU). Shown is a representative out of 9 experiments for CCLR and 8 for LR in each, duplicates or triplicates. Insets show fittings of steady-state affinity. Ligand LR: Interaction of analyte, MRIP^724-878 (85.6–0.7 μM) with immobilized ligand, LR (244.8 RU) after correction for nonspecific binding using a nebulin-derived peptide (600 RU). Shown is a representative out of 6 experiments.
Binding analyses of SPR were conducted on a Biacore 3000 (GE Healthcare) at 25°C. Sensor chips and reagents for immobilization (1-ethyl-3-(3-dimethylaminopropyl) carbodiimide, N-hydroxyl-succinimide, and ethanolamine) were purchased from GE Healthcare. Peptides were immobilized onto a CM5 sensor chip at 232–5841 resonance units (RU) using amine coupling. Binding studies were done using two-fold serial dilutions of the peptides in 50 mM potassium phosphate buffer (pH 7.4) containing 100 mM KCl. […]

[4] = AUC of MYPT1 peptides alone (concentration dependence, self-association); format: physicochemical; conditions: CC alone, 107 μM and 3-, 9-fold dilutions, MRIP^724-878 alone, 50 μM and 3-, pH 7.4, 20°C
Source text: as §2
Fig 4 LR contains sufficient residues for the MYPT1/MRIP interaction. […] CC; Concentration-normalized time derivative g(s*) plots of CC, MRIP^724-878, and equimolar mixtures of the two peptides: Black filled-in circles, an original CC alone (107 μM); dark gray filled-in circles, a 3-fold dilution of CC alone; light gray filled-in circles, a 9-fold dilution of CC alone; black filled-in triangles, an original MRIP^724-878 alone (50 μM); dark gray filled-in triangles, a 3-fold dilution of MRIP^724-878 alone; light gray filled-in triangles, a 9-fold dilution of MRIP^724-878 alone; a black line, an original equimolar mixture of MRIP^724-878/CC (50 μM each): a dark gray line, a 3-fold dilution of the mixture; a light gray line, a 9-fold dilution of the mixture. […]

| Molecule | molar mass ([1]; AUC sedimentation velocity, SedAnal global fit to monomer-dimer reaction, 7.5–67.1 μM, 50 mM potassium phosphate pH 7.4, 100 mM KCl, 1 mM DTT, 20°C, CL 0.95) [kDa] | oligomeric state in solution ([1]; AUC sedimentation velocity, pH 7.4, 100 mM KCl, 20°C) | sedimentation coefficient, monomer ([1]; AUC, monomer-dimer model, 7.5–67.1 μM, pH 7.4, 100 mM KCl, 20°C, CL 0.95, min, 1.23, max, 1.31) [S] | sedimentation coefficient, dimer ([1]; AUC, monomer-dimer model, 7.5–67.1 μM, pH 7.4, 100 mM KCl, 20°C, CL 0.95, min, 1.88, max, 1.91) [S] | concentration dependence of g(s*) curves ([1]; AUC, MRIP^545-878 1.5–13.6 μM, MRIP^724-878 4.7–42.3 μM, MRIP^724-837 7.5–67.1 μM, pH 7.4, 20°C) | binding to CCLR (shift in g(s*) curves) (CCLR) | binding to MRIP^724-878 (g(s*) curves) (MRIP^724-878 [2]) | complex formation with immobilized MRIP^724-878 (MRIP^724-878 [3]) | concentration dependence of g(s*) curves [4] |
| --- | --- | --- | --- | --- | --- | --- | --- | --- | --- |
| B1 | 13.9±0.2 | a mixture of monomer-dimer | 1.29 | 1.90 | concentration dependence and a reversible interaction | bind to CCLR |  |  |  |
| B2 |  |  |  |  |  |  | no binding | did not | superimposable, indicating concentration-independence |
